Assay results: patent publication US20240376151A1, “STAPLED PEPTIDES AND METHODS THEREOF” (FOG PHARMACEUTICALS, INC., priority 2022, published 2024)
Numbered stars: 1 amine (or outer) side, 2 acyl side, 3 side chain; on linkers, the order of the positions; unused ones are H or OH. Bridge positions count the residues as written; N and C are the ends. Ends that are not written are not given here. Phenylene(1,4-NHCOCH2)2 = O=C(C[*:1])Nc1ccc(NC(=O)C[*:2])cc1

Legend:
CUL5 = biological target: T1, CUL5 (Homo sapiens, UniProt Q93034, L345D/V341R); assay: Naive Library Presenter Screening (phage, NGS), CUL5; type: binding; settings: for interaction data at Target Concentration 10: CUL5 target concentration 10 nM; for interaction data at Target Concentration 30: CUL5 target concentration 30 nM; for interaction data at Target Concentration 100: CUL5 target concentration 100 nM; for interaction data at Target Concentration 300: CUL5 target concentration 300 nM; for interaction data at Target Concentration 1000: CUL5 target concentration 1000 nM
T1 construct: GST-TEV (N, cleaved yes); made in house; host or cells: E. coli BL21 CodonPlus
T1 sequence (Q93034 1-386 V341R/L345D): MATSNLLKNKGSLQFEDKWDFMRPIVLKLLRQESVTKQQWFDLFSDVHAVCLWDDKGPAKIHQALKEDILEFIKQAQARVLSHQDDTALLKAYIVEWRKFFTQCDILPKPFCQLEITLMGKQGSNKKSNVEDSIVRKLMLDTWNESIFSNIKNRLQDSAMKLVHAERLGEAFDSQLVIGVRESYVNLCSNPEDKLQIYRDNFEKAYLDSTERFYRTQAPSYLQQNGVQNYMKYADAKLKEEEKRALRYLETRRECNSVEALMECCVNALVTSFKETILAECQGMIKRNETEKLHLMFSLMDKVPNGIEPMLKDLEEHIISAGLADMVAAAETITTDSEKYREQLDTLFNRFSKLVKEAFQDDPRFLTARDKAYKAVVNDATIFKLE

FBXW7-SKP1 = biological target: T2, FBXW7-SKP1 (Homo sapiens, UniProt Q969H0); assay: Naive Library Presenter Screening (phage, NGS), FBXW7-SKP1; type: binding; settings: for interaction data at Target Concentration 10: FBXW7 target concentration 10 nM; for interaction data at Target Concentration 30: FBXW7 target concentration 30 nM; for interaction data at Target Concentration 100: FBXW7 target concentration 100 nM; for interaction data at Target Concentration 300: FBXW7 target concentration 300 nM; for interaction data at Target Concentration 1000: FBXW7 target concentration 1000 nM
T2 construct: FBXW7 (Uniprot ID: Q969H0, residues 263-706) with an N-terminal GST-TEV tag and C-terminal AVI tag; GST-TEV (N); made in house; host or cells: E. coli BL21 (DE3)
T2 sequence (Q969H0 263-706): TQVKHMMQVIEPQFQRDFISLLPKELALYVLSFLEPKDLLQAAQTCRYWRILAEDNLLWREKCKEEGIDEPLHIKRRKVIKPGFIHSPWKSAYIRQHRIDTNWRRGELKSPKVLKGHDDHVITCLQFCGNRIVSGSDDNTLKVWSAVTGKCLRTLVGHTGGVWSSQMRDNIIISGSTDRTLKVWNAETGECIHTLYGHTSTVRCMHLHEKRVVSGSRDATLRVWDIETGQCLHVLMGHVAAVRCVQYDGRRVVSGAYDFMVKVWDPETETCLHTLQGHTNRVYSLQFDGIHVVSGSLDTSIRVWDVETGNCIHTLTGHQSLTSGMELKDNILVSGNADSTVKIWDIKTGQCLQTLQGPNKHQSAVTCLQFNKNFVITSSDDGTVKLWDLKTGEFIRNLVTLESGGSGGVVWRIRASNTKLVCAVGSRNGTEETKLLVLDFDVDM
T2 sequence (P63208 whole entry partner, the tested form may be a part): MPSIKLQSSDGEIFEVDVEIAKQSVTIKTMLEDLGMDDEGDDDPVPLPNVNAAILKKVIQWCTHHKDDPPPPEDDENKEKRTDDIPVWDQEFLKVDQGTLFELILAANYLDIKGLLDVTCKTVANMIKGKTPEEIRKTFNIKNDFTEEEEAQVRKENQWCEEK
Procedure: To conduct phage library screening, previously described procedures were utilized in accordance with the present disclosure.
Next-generation sequencing was performed as described in accordance with the present disclosure.
Hit ID and Clustering is performed according to a described procedure in accordance with the present disclosure.

| Sequence | interaction data at Target Concentration 10 (CUL5) | interaction data at Target Concentration 30 (CUL5) | interaction data at Target Concentration 100 (CUL5) | interaction data at Target Concentration 300 (CUL5) | interaction data at Target Concentration 1000 (CUL5; first column) | interaction data at Target Concentration 1000 (CUL5; second column) | interaction data at Target Concentration 10 (FBXW7-SKP1) | interaction data at Target Concentration 30 (FBXW7-SKP1) | interaction data at Target Concentration 100 (FBXW7-SKP1) | interaction data at Target Concentration 300 (FBXW7-SKP1) | interaction data at Target Concentration 1000 (FBXW7-SKP1; first column) | interaction data at Target Concentration 1000 (FBXW7-SKP1; second column) |
| --- | --- | --- | --- | --- | --- | --- | --- | --- | --- | --- | --- | --- |
| DPAIQQCAEAAWSCYVE | 0 | 13 | 30 | 40 | 14 | 0 | – | – | – | – | – | – |
| DPANIACDDAALLCEFW | – | – | – | – | – | – | 4 | 131 | 203 | 946 | 1140 | 1464 |
| DPANIACDDAALLCELW | – | – | – | – | – | – | 0 | 1 | 1 | 7 | 8 | 6 |
| DPANWVCMDAAELCDFY (DPANWVCMDAAELCDFY-NH2; linker 7-14 via Phenylene(1,4-NHCOCH2)2 (inferred)) | – | – | – | – | – | – | 0 | 0 | 5 | 2 | 99 | 15 |
| DPATFACANAAWECYAR | 0 | 6 | 25 | 11 | 35 | 0 | – | – | – | – | – | – |
| DPATYFCYDAAELCDWW | – | – | – | – | – | – | 0 | 0 | 1 | 5 | 5 | 82 |
| DPAWAICAEAAWDCFMI | 0 | 14 | 13 | 58 | 11 | 0 | – | – | – | – | – | – |
| DPAWFDCAEAAWQCVFI | 2 | 35 | 91 | 170 | 31 | 0 | – | – | – | – | – | – |
| DPAWFTCAQAAWDCVFH | 0 | 65 | – | 96 | 224 | 0 | – | – | – | – | – | – |
| DPAWHMCAEAAWQCAFW (not fully specified (C-terminus, bridges); cysteine pairing not given here) | 5 | 61 | 106 | 119 | 152 | 0 | – | – | – | – | – | – |
| DPAWMRCATAAWECVMT | 16 | 22 | 151 | 104 | – | 0 | – | – | – | – | – | – |
| DPAWMTCATAAWECYLA | 6 | 6 | 62 | 48 | 55 | 0 | – | – | – | – | – | – |
| DPAYFSCEDAAELCEWY | – | – | – | – | – | – | 0 | 0 | 1 | 3 | 13 | 38 |
